In publication doi:10.1101/2023.09.01.555900 (bioRxiv, 2023):

Molecular target: Rho factor (E. coli transcription termination factor Rho) (E. coli, UniProt P0AG30 1-419)
Assay: SEC

Chain of Rho factor (E. coli transcription termination factor Rho) (P0AG30 whole entry): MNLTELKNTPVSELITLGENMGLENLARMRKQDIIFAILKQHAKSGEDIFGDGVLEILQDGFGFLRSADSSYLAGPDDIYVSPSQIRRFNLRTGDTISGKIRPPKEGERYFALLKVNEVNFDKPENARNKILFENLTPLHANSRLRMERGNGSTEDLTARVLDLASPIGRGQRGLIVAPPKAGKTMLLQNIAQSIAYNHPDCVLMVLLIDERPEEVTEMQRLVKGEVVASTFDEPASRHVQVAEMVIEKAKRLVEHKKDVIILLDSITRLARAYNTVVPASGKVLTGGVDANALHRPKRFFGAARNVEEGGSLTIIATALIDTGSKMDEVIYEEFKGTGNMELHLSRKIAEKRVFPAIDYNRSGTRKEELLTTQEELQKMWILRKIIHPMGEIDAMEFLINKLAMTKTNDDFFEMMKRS

B1: Rof (Rho-off, also called YaeO) (natural protein, E. coli)
chain: MNDTYQPINCDDYDNLELACQHHLMLTLELKDGEKLQAKASDLVSRKNVEYLVVEAAGETRELRLDKITSFSHPEIGTVVVSES
binding result: binds
